Assay: soluble on expression in E. coli; label from the status in PepcDB or PDB records

| Sequence | soluble on expression in E. coli |
| --- | --- |
| MAKKKDEITIRSSAAEYLTYVASVGDQQDSIEMRYEDENIWLTQKMMATLYDVDVRTINEHIKKIYSDSELEEDSTIRNFRIVQTEGSRQVTRDTKHYNLQMIIAVGFKVNSERAVQFRKWVNQIAKDYTIKGWVMDDERLKRGTYLTEKYFDEQLERIREIRASERKFYQKITDLYATAIDYDKNAAMTRRFYSTVQNKMHYAVHGHTAAELIVERADHTKEHMGLTTWEDAPEGKIKKSDVTVAKNYLSQDEMKQLNRMVTAYLDFAENMTLRHIPLTMQDWEKRLNSFIEMFDYGILQDAGKVSAEIAKLHAETEFEKYRVIQDRLFMSDFDKFMLELEENTKK | not soluble |
| MAKLGPAGYSPYPVAVTEGVLTPPPGKALMFNEIVDEEIAMREAAKAMLTRDNPTIFPGPQVLYAWNEEAKEKAKLVRKMAEVLGAKIIPMYDYRPKYPKIDPEKEINPNHPNLTIWHNKIKACIFIGVHCHYANVALKIIRAETDCFTIAMCSMAGHEDAMITLRDQHVEDLEKFIKIAEEVKKELGK | not soluble |
| MAKLRVGIVFGGKSAEHEVSLQSAKNIVDAIDKTRFDVVLLGIDKAGQWHVNDAENYLQNADDPAHIALRPSAISLAQVPGKHQHQLINAQNGQPLPTVDVIFPIVHGTLGEDGSLQGMLRVANLPFVGSDVLSSAACMDKDVAKRLLRDAGLNIAPFITLTRTNRHAFSFAEVESRLGLPLFVKPANQGSSVGVSKVANEAQYQQAVALAFEFDHKVVVEQGIKGREIECAVLGNDNPQASTCGEIVLNSEFYAYDTKYIDDNGAQVVVPAQIPSEVNDKIRAIAIQAYQTLGCAGMARVDVFLTADNEVVINEINTLPGFTNISMYPKLWQASGLGYTDLISRLIELALERHTANNALKTTM | soluble |
| MAKLSGSIDVPLPPEEAWMHASDLTRYREWLTIHKVWRSKLPEVLEKGTVVESYVEVKGMPNRIKWTIVRYKPPEGMTLNGDGVGGVKVKLIAKVAPKEHGSVVSFDVHLGGPALLGPIGMIVAAALRADIRESLQNFVTVFAG | soluble |
| MAKLYFYYSTMNAGKSTTLLQSSYNYRERDMNTLVYTAAIDDRFGVGKVTSRIGISQDAFLFRSETNLFDEINEHLKKEKVHCVLVDEAQFLSKQQVYQLSDVVDKLKIPVLCYGLRTDFQAELFEGSKYLLAWADQLEELKTICYCGRKANFVLRLNDQGEVIKEGAQIQIGGNDSYLSVCRLHYKEKCGQILEHHHHHH | soluble |
| MAKPSFSCSACGASFTKWSGRCEGCGDWNTISQDAGLSAGPAKKSLGAKRGRAVTLTDLASEEAPPPRAMSGIGELDRVLGGGLVPASAILVGGDPGIGKSTLLLQAVAAFARKGLKTLYVSGEEASAQVRMRARRLGLADAPVQLAAETNLRDILTTLEAEKPGLVIIDSIQTMWADNVDSAPGSVSQVRASAHELTTFAKRTGISVIMVGHVTKDGQIAGPRVVEHMVDTVLYFEGERGHQFRILRSVKNRFGAADEIGVFEMTGAGLAEVTNPSALFLSERGAPSPGSVVFAGIEGTRPVLVELQALVAPSPHSQPRRTVVGWDGGRLAMILAVLEARCGIPFAGLDVYLNVAGGLKISEPAADLAVAAALLSAREDRALPGDTVIFGEISLSGALRPASQTENRLKEAQKLGFTSAIAPAGGKTGTLEGLTMTRPTDLVGFVGEFFGAGLEHHHHHH | not soluble |
| MAKRKAEDTQSDKMATAEKVAQNDYTIGLVDPVKDYQKLIETRVQVDEIVDDDVTKENFDRTAAAARDVIWRLLFDEAGTSQSNTEKASQLLEEYRGDACFYDPTPYNEWIVKLRDEVLKKELLDFWRDVLVKKQLGPCWSRDSDLFDSDDTPPLEFYAHAGCTAPFAASLKVRAALEEQASLDQDGPATPTTPGELSADDAAALSGEFEATLTKENPLEEYRTLMKRFVLTKIIVPDSVHQASVKKIAAAAREIIWKLLFDGTPSAEDQNKAAELLQEYKGDAGFYGPDDYNSWIFNLRDEVLTKELLDFWRDKMVKMELGPSCARDSDYYDNEDPLPFEFYEKAGCKAPFEGPVNDD | soluble |
| MAKRKICQAMAVVLALGMCTTGLTGCGNEKRADGKTEIEVVSYKPEAVKAFEKIEKQFNETHDDIHLTISSPNEAMTILKTRFIREDYPDIIAIGGDINYSNFLDADLFEDISDLDAVDNVKEAYLDMDKELEFIPKDGTYALPYAANAAGVLYNKDMFAENGWKVPTTWSEFTALCDEIKESGTLPLYLGFKDTWTCLAPWNALAVGLCDSDTCNQVNMGNTTFEEAYSPVADKIRTLLDYAEDNPYAYSYNDACTAFARGESAMYTIGSYAIPQIKSVNPDMNIGSFTFPANDNEADNVLNSGIDLQLSVMKACKNKEAAYEVLEYLYSDETIQTYLDDQGGIACKEGDFAIPDTLEDMQEYIKDNRMSDYQDHHYPSEMSVDAMIQTYLLDTGDNAKEKFLKKFDSDWERYNRDLIREVQDYQKEQEDAK | not soluble |

Source: the DeepSol protein solubility set
